# B1: 10-mer dsDNA (dsDNA)
# DNA 1: TAGCGTAACG
# DNA 2: CGTTACGCTA
# How the values were obtained:
# SET/TAF-Ibeta = SET/TAF-Ibeta (Homo sapiens, UniProt Q01105-2 1-277); test: NMR; 10 mM sodium phosphate pH 7.4; NMR: 10 mM sodium phosphate pH 7.4, 1 mM ascorbate, 1 mM TCEP, 5% D2O, 25 C; optical tweezers: 25 mM HEPES, 50 mM KCl, 0.1 mM EDTA, pH 7.5; settings: protein: recombinant; tags: N-terminal 6xHis; chain copies: 2; blunt
# cytochrome c = cytochrome c (Homo sapiens, UniProt P99999 2-105); test: NMR; reduced Cc 13 uM, dsDNA 26 uM; Met80 signal decreased on dsDNA addition; NMR: 10 mM sodium phosphate pH 7.4, 1 mM ascorbate, 1 mM TCEP, 5% D2O, 25 C; optical tweezers: 25 mM HEPES, 50 mM KCl, 0.1 mM EDTA, pH 7.5; settings: protein: recombinant; blunt
# histone H3 = histone H3 (Xenopus laevis, UniProt P84233 1-136); test: NMR; H3 competes with Cc for dsDNA; NMR: 10 mM sodium phosphate pH 7.4, 1 mM ascorbate, 1 mM TCEP, 5% D2O, 25 C; optical tweezers: 25 mM HEPES, 50 mM KCl, 0.1 mM EDTA, pH 7.5; settings: protein: recombinant; blunt
# SET/TAF-Ibeta, sequence (Q01105 other isoform, or with tags, fused parts or gaps): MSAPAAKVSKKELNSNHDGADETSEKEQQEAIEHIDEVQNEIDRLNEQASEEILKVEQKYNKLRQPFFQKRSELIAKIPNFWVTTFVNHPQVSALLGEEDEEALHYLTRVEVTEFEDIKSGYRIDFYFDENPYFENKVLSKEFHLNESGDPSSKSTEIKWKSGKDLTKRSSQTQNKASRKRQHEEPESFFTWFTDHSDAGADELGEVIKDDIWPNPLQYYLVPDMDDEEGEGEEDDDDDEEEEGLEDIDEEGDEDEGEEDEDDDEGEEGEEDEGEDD
# cytochrome c, sequence (P99999 2-105): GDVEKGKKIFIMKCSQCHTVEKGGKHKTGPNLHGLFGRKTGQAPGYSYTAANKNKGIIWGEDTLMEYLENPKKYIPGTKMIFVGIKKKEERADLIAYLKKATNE
binder,measurement,setting,value
B1,binding result,SET/TAF-Ibeta,no binding
same,binding result,cytochrome c,binds
same,binding result,histone H3,binds

# — PMC10582448, “The Histone Chaperones SET/TAF‐1β and NPM1 Exhibit Conserved Functionality in Nucleosome Remodeling and Histone Eviction in a Cytochrome c‐Dependent Manner”
